Measurements: the supplement of paper PMC9170038

System: K4 kissing-loop RNA reporter
Experiment: apparent KD of K4 kissing-loop reporter; higher = weaker reporter binding
Details: Eterna round: R107
Protocol: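 RNA-MaP round R107: designed RNA switches with theophylline, tryptophan, arginine or FMN aptamers are transcribed on-chip within common flanks. They are titrated with a labelled K4 kissing-loop RNA reporter in RNA-MaP buffer (100 mM Tris pH 7.5, 80 mM KCl, 4 mM MgCl2), without ligand or with the indicated ligand. Median apparent KD per design.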

[1] = input ligand: theophylline 20 uM
[2] = input ligand: tryptophan 2.4 mM
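Further: bound reporter read as fluorescence of individual clusters on recovered sequencing chips by microscopy, with normalized cluster intensities fitted with a binding model.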

Sequence | apparent KD of K4 kissing-loop reporter (input ligand: FMN 200 uM) [nM] | apparent KD of K4 kissing-loop reporter (input ligand: arginine 13.2 mM) [nM] | apparent KD of K4 kissing-loop reporter (input ligand: none) [nM] | apparent KD of K4 kissing-loop reporter [1] [nM] | apparent KD of K4 kissing-loop reporter [2] [nM]
UGGAGUUGACGAAAAGUCAACUCCUGAGAUACCAGUGACGAAAGUCACCCUUGGCAGCUCACUGCCAGUGAUGUUGGUAAAUAAA [#OpenEnded 3] | 78.1 | 92.5 | 159 | 568 | 81.8
AAUACAGUACAACCGAGUGGAACACAAAUACGAGGACCGGUACGGCCGCCACUCGUGCAGAAUUUCAGUGAUGUUGAAAUACUGC [Exclusion Tryptophan A GF 6] | 165 | 125 | 122 | 162 | 149
AAUUUAUAUUUGUUCUUCAAAUGUUCAGAAGGAGCGUGAAUUAUCACAGGUAGGUCGCUGGGCUAGUGAUGUUGGCUAUAUACUA [whbob_Ex_Arginine_A_2t126] | 168 | 195 | 195 | 211 | 137
UGCGCUGUGUCCUGAAAUGUCCUCCGGGAUACCAGAGUCUUUUUAUUCCCUUGGCAGCUUGAGUGAUGUUUGAUGCCGUUCUUGU [yvvymullin] | 668 | 481 | 713 | 576 | 515
UAAAACGCUUGAAUAACAAGCGAAAAUUCGCGAGGACCGGUACGGCCGCCACUCGCUAACUGCGAGUGAUGUUCGAUAAUAAAAU [Mat - Mod of OpenEnded 3 - D4] | 149 | 70.1 | 158 | 188 | 95.5
UACUGGGCGAGUGAUGUUCGCUCACGUGAUACCAGUGCCAUCCAACACCCUUGGCAGCACGCGGGCAGUGAUGUUGUCCUUGUAU [Exclusion Theophylline A GF 5] | 127 | 112 | 123 | 129 | 111
AGUGAUGUAUGGCGGUUUGUCACUUAAAAUCAGGAUAUAUAAACAAAUAGAAGGGAUGGCGGAGUGAUGUUCCGCCGGCCGCCAU [FMN A Exl V1] | 171 | 145 | 177 | 179 | 162
UUUUGGUACUGAGGAUAUUCGAAGAAAUAUAGUGAUGUUAUAUAAGGAGGAGGAGGGAGGGAGGAAGGAGAAGGCAGAAGAGGAG [ExFMNB.G] | 289 | 163 | 235 | 225 | 266
UACGUAGAGCGAGGAUAUCCUUCCCACGUCGAAGUACCGUGCUUGAUGGAGUGAUGUUCGAUCAGAGGAGAAGGUGCGAAACGUC [Flavin Switch Lower Fold Energy] | 725 | 618 | 724 | 622 | 524
UAUAUAUGAUGUGAUACCAGUGAAAAGCCAGUGAUGUUGGAAGAACUGGUAUAUAAAUAACACCCUUGGCAGCACAAUCACGUAU [theophylline b exclusion] | 271 | 261 | 266 | 382 | 268
GAUUUAGAGGCGGCCGCCACUAGUGAUGUUAGUGAUGUUUGAUACUGAAUAUAUCUGCGUUUAGAUAGGACCGGGCCAGAUGGAG [qzwqmullin] | 234 | 164 | 181 | 193 | 177
GUUACGCAUGGAAGGAGCGCACUCCGAUUGAUCGACACAGUGAUGUUGUGGUUCGUUCGAAUGCAGGUAGGUCGCCAUGUGUAAC [Ex Arginine B K4 17] | 259 | 250 | 253 | 303 | 233
AAAUAAUGCAGUCACCCAGUGAUGUUGGAAGGAGCGUGCGAAAGCACAGGUAGGUCGCCAAUAAUGAUAAAGUUCAGUGGCUUUA [JR_Nu_ExcArginiA_Sub030] | 766 | 682 | 454 | 464 | 659
UGCUUAGUGAUGUUUGAUUUGGUGCAUGCAGAGGAUAUAGGGUGCUUUAGAAGGCUGAGGAGUGCGCCGAGUGAUGUUCGGCGCU [Exclusion FMN A GF11] | 192 | 164 | 206 | 182 | 170
GGUGACUACCAGAGGUGAUGUAUAGUAUCGCGAGGACCGGUACGGCCGCCACUCGUGAAGAGAAAGGAGUGAUGUUCCGUAAUGG [Kazoo C8] | 396 | 315 | 323 | 627 | 160
UGGGAUGGUUCGGCCGCCACUAUGGUGCAGUGAUGUUGCAUCGUAGUAAAUCAUUCCAUUUACCGUAGGACCGGGAACCUUACGC [Mavelege] | 108 | 82.7 | 94.9 | 83.4 | 86.2

Sequence | apparent KD of K4 kissing-loop reporter (input ligand: FMN 200 uM) [nM] | apparent KD of K4 kissing-loop reporter (input ligand: arginine 13.2 mM) [nM] | apparent KD of K4 kissing-loop reporter (input ligand: none) [nM] | apparent KD of K4 kissing-loop reporter [1] [nM] | apparent KD of K4 kissing-loop reporter [2] [nM]
GCAGUGAUGUUGCUGAUGUGCAGUGGUAGUCGAGGACCGGUACGGCCGCCACUCGGUGAGAAUUUGCUAAUACAUCGAUAAGUGA [XVII] | 1210 | 614 | 1280 | 858 | 904
GAACCAGAGGUUGCUGCGGGUUCCAGAGAUACCAGCCGUAUUGAAGGCCCUUGGCAGCUCGAGUGAUGUUCGAGCCGCCUCUGGC [Antius] | 118 | 96.8 | 120 | 103 | 103
CUAGCUAGCAUGGAAACAUGCUAGCUAGAUUAGGAUAUGACGUAAGUCAGAAGGGAUAAAUGGAGUGAUGUUCCGGACGCAAGUC [#2 Same State - FMN A Attempt #4 (HarryS)] | 255 | 237 | 247 | 295 | 186
CCAUUCUUUUACGAUACCAGUUUAAUAUAUUUAUUCAUAACCCUUGCCGAGUGAUGUUCGGACCCUUGGCAGCGUUUGCGAGAGG [lliltkmullin] | 303 | 308 | 392 | 404 | 239
AAUUGAGUGACGGCCGCCACUAGAGUGAUUUUUUUGUUUGAGUGAUGUUUUGAUGUUUGAUGUUGUAGGACCGGGUUGAGUGAUG [vvrvmullin] | 377 | 348 | 386 | 428 | 291
UUAGAGAUCUCAGGAUAUCAGUGAUGUUGGUGUUAAGAUCUGAGAUAGAAUUCUAUCUCAGAUCAAUGAGAAGGGAGAUCUCAUU [AK3 Exc FMN B] | 296 | 132 | 167 | 161 | 152
UUUCGGCCCAGUGAUGUUGGGUGGAGGCGGCGAGGACCGGUACGGCCGCCACUCGGCGCACUGGCGGAGUGAUGUUUCGUGUAUA [Same State Tryptophan A GF 14] | 697 | 592 | 752 | 708 | 834
CUUGAUGGAAACAUCGAGUAGAUUACUGAUACCAGUAUCGAUAGAUACCCUUGGCAGCAGAAUCAGUAAUCACGAGUGAUGUUCG [Ex Theophylline A K4 7] | 535 | 528 | 555 | 518 | 485
ACGUAGCAGGCGGCCGCCACUCCGCAUAUGGAUCUCGAGUGAUGUUUGAGGGUGCCCAUCACAGCGAGGACCGGGCCAAUUAAGC [theeternabot_sameState_KL_Trp_B_10] | 86.2 | 105 | 127 | 179 | 254
AGACUACUGAUAGGAUAUAACAUACUAACUCGUAUACCAAAGGUAUACGAGACCCUUCUAGUGAUGUUAGAAGGGUCGGUAGUCA [Omei KL FMN B Exc B v6] | 82.2 | 74 | 76.3 | 74.8 | 73.9
GGGUGGUAGGCGGCCGCCACUCUGAGCACCCACUGAGUGAUGUUCGUGGCGUAAGCCUGUUCAUAGAGGACCGGGUUUGUUGUUC [Exclusion Tryptophan B GF 16] | 507 | 252 | 514 | 470 | 376
GUCCCGAGUGAUGUUCGGGUCGUUCGGGAAGGAGCGCCCGCAAGGGCAGGUAGGUCGCCCGGAUCCCUCAGGUAACUGAGGGACC [#2 Same State - Arginine A Attempt #26 (HarryS)] | 632 | 428 | 491 | 467 | 465
CGAGUGAUGUUCGUUUUUUACUCUGUUUGACAGGAUAUGCGGAAACGCAGAAGGGUCACCUUUGAGUUAAACGGAGUUAUUUUUU [Ex FMN A 20] | 419 | 296 | 366 | 306 | 320
UAUCAGAUUACUGAUACCAGUCUAAAGACAGUGAUGUUGUCUGAUCGACCACGAUCCAAGGACCCUUGGCAGCAGUGUACUAUUC [#30 K4 Theophylline B Same State] | 177 | 183 | 194 | 205 | 191
CAUAGACAAGUGAUGUUUGUCAUAACCGAAGGAGCGUCUUUAAAGACAGGUAGGUCGCGGAUUAGUUAAGUUAUGAUUCUUUAUG [#19 K4 Arginine A Same State] | 602 | 492 | 704 | 659 | 453
GGAUAGGACAGAGGAUAUCCUGAGGCAAGAAACUUGUCUCAUAAAGGAUGAAUCCUAGUGAUGUUAGGAGAAGGCUGUCCUAUCG [FmnBX 15 - #SwitchBubble #StaticStem #Palindromic] | 172 | 58.8 | 88 | 104 | 71.3
